These are literature values, as cited in publication PMC10910082.

As usually defined, the Kd is the constant that tells how readily two partners part at equilibrium.

For data set [1], the target named is CD155 (Homo sapiens) (UniProt P15151).
Another data set addresses CD86 (Homo sapiens) (UniProt P42081).
Another data set concerns the target CD80 (Homo sapiens) (UniProt P33681).
The target in data set [2] is CD155 (Homo sapiens) (UniProt P15151). The source holds these as a separate data set.

Read-outs that look alike come from different tables or passages of the source.

Sequence of UniProt P15151 (P15151 21-343): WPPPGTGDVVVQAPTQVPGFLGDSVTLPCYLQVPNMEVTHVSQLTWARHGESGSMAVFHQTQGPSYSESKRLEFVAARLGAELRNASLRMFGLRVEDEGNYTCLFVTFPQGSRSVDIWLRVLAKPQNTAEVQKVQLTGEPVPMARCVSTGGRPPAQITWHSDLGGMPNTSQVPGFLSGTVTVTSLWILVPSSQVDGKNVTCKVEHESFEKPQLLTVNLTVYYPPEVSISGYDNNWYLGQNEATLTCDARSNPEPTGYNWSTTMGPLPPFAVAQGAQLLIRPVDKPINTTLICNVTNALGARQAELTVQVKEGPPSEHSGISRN
Sequence of UniProt P42081 (P42081 24-247): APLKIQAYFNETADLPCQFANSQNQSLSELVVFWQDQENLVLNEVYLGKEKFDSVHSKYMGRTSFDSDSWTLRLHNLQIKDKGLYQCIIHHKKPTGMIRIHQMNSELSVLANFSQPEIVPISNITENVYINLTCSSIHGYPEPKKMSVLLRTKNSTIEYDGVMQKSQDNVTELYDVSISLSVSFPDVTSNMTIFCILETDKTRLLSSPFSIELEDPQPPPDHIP
Sequence of UniProt P33681 (P33681 35-242): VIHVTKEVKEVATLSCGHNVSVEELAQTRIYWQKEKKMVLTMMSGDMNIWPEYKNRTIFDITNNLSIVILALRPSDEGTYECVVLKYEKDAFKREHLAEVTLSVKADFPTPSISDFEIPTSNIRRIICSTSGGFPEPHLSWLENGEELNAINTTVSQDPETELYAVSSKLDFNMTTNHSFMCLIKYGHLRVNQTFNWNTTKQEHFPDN

In the case of TIGIT (from UniProt Q495A1), in the data set with CD155 (Homo sapiens) [1], the Kd was 0.002 µM. Take CD28 (from UniProt P10747): the dissociation constant (Kd) with CD86 (Homo sapiens) was 27.5 µM; with CD80 (Homo sapiens) it was 4 µM. As for CD226 (from UniProt Q15762), the Kd with CD155 (Homo sapiens) [2] is 0.117 µM.
